Consider three substances from patent publication US20110195896A1, “ISOFORM-SPECIFIC INSULIN ANALOGUES” (CASE WESTERN RESERVE UNIVERSITY, priority 2008, published 2011).

For assay [1], the target named is human insulin receptor isoform B (human) (UniProt P06213). As to the kind of experiment: competitive displacement of 125I-human insulin, FLAG-tagged receptor captured on anti-FLAG plate. As to conditions: scale: % of the affinity of human insulin for IR-A. (In general: Loss of bound radioactivity is the signal in a displacement assay; it reports binding, not function.)

For assay [2] the target is unchanged. Nature of the assay: competitive displacement of 125I-insulin from receptor.

Chain of His^A8, Asp^B10, Asp^B28, Pro^B29 insulin (two chain analogue) (ligand) (chain): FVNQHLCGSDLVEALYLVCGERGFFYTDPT
Chain of His^A8, Asp^B10, Asp^B28, Pro^B29 insulin (two chain analogue) (ligand) (chain): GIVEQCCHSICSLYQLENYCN

In the case of “Insulin-like Growth Factor 1 (from UniProt P05019 49-118) (ligand)”, the relative affinity in assay [1] came to 0.7.
A word on the Kd: it is the concentration at which binding is half-saturated. Consider “His^A8, Asp^B10, Asp^B28, Pro^B29 insulin (two chain analogue) (ligand)”, for which, in assay [2], the dissociation constant (Kd) stood at 0.01 nM and the relative affinity (relative to human insulin) is 4.7.
Turning to “insulin-like growth factor II (from UniProt P01344 25-91) (ligand)”, the relative affinity in assay [1] was 4.
